In patent US20190016764A1 (KYUNGPOOK NATIONAL UNIVERSITY INDUSTRY ACADEMIC COOPERATION …, published 2019):
No end group written: not given here.

T1: TFMG (TRAP-ferritin monomer fragment-linker-PC-Gla fusion polypeptide)
T1 chain: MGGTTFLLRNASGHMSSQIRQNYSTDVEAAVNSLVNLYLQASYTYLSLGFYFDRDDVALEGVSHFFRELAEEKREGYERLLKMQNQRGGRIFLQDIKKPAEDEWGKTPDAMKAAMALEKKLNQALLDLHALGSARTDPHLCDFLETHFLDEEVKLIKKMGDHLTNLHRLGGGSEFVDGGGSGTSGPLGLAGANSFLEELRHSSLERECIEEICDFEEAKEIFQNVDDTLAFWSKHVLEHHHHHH

T2: EPCR in mouse vena cava (mouse, UniProt Q64695 18-242)
T2 construct: whole, on cells; Endogenous receptor in tissue sections of C57BL/6 mice; also called EPCR (mouse, in vivo)
T2 sequence (looked up): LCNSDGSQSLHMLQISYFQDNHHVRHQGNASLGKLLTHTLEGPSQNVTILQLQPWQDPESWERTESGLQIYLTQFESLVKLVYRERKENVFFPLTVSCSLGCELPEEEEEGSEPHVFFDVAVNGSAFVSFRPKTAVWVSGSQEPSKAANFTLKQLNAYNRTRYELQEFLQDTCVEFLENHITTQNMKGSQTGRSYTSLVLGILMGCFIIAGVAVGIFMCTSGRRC

B1: MMP-2 (matrix metalloproteinase-2), p-aminophenylmercuric acetate-activated (protein)
chain: YNFFPRKPKWDKNQITYRIIGYTPDLDPETVDDAFARAFQVWSDVTPLRFSRIHDGEADIMINFGRWEHGDGYPFDGKDGLLAHAFAPGTGVGGDSHFDDDELWTLGEGQVVRVKYGNADGEYCKFPFLFNGKEYNSCTDTGRSDGFLWCSTTYNFEKDGKYGFCPHEALFTMGGNAEGQPCKFPFRFQGTSYDSCTTEGRTDGYRWCGTTEDYDRDKKYGFCPETAMSTVGGNSEGAPCVFPFTFLGNKYESCTSAGRSDGKMWCATTANYDDDRKWGFCPDQGYSLFLVAAHEFGHAMGLEHSQDPGALMAPIYTYTKNFRLSQDDIKGIQELYGASPDIDLGTGPTPTLGPVTPEICKQDIVFDGIAQIRGEIFFFKDRFIWRTVTPRDKPMGPLLVATFWPELPEKIDAVYEAPQEEKAVFFAGNEYWIYSASTLERGYPKPLTSLGLPPDVQRVDAAFNWSKNKKTYIFAGDKFWRYNEVKKKMDPGFPKLIADAWNAIPDNLDAVVDLQGGGHSYFFKGAYYLKLENQSLKSVKFGSIKSDWLGC
B2: PC-Gla peptide (Protein C Gla domain polypeptide) (peptide)
peptide: ANSFLEELRHSSLERECIEEICDFEEAKEIFQNVDDTLAFWSKHV
modifications: ends and bridges not checked; also: labelled with a fluorescent dye for cell and in vivo assays
notes: No gamma-carboxylation of Glu residues is stated; It was labelled with a fluorescent dye for the cell and in vivo assays; also called PC-Gla domain; PC-Gla peptides
B3: TFG (TRAP-ferritin monomer fragment-PC-Gla fusion polypeptide) (other)
chain: MGGTTFLLRNASGHMSSQIRQNYSTDVEAAVNSLVNLYLQASYTYLSLGFYFDRDDVALEGVSHFFRELAEEKREGYERLLKMQNQRGGRIFLQDIKKPAEDEWGKTPDAMKAAMALEKKLNQALLDLHALGSARTDPHLCDFLETHFLDEEVKLIKKMGDHLTNLHRLGGGSEFVDGGGSGTSANSFLEELRHSSLERECIEEICDFEEAKEIFQNVDDTLAFWSKHVLEHHHHHH
notes: also called TRAP-ferritin-PC-Gla; TFG nanocage
B4: TFMG (TRAP-ferritin monomer fragment-linker-PC-Gla fusion polypeptide) (other)
chain: T1 chain
notes: also called TMFG; TFME
B5: soluble EPCR (endothelial protein C receptor) (receptor, UniProt Q9UNN8 18-210, looked up)
chain: SQDASDGLQRLHMLQISYFRDPYHVWYQGNASLGGHLTHVLEGPDTNTTIIQLQPLQEPESWARTQSGLQSYLLQFHGLVRLVHQERTLAFPLTIRCFLGCELPPEGSRAHVFFEVAVNGSSFVSFRPERALWQADTQVTSGVVTFTLQQLNAYNRTRYELREFLEDTCVQYVQKHISAENTKGSQTSRSYTS
notes: also called sEPCR

Assays:
[1] = target: T1, TFMG (TRAP-ferritin monomer …)
EPCR in mouse vena cava = target: T2, EPCR in mouse vena cava; assay: immunohistochemistry of mouse vena cava after i.v. injection of the fluorescence-labelled molecule; comparison with TFG and TFMG
Procedure: Twenty-four hours prior to CLP surgery, fluorescence labeled-PC-Gla, TFG, and TFMG (200 nM/mouse) was intravenously injected into the mice, respectively. After 24 h, mouse vena cava was enucleated and fixed in visikol for 24 h. Subsequently, vena cava was embedded in optimum cutting temperature (OCT) compound (Tissue Tek) at −80° C. Consecutive sections were incubated with anti-EPCR antibody (Santa Cruz, Calif.), anti-rabbit Alexa 488 (green), anti-CD31 antibody, and anti-rabbit Alexa 350 (blue), and observed by confocal microscopy at 63× magnification (TCS-SP5, Leica microsystem, Germany).

[2] = target: B5; assay: solid-phase ELISA, sEPCR coated on the plate, detection with anti-protein C polyclonal antibody; Kd(app)
Procedure: (§1) To evaluate the interaction of the wild-type PC, PC-Gla peptides, TFG, and TFMG with EPCR, 96-well flat microtiter plates were coated with soluble EPCR in 20 mM carbonate-bicarbonate buffer (pH 9.6) containing 0.02% sodium azaide, overnight at 4° C. After the plates were washed three times in TBS buffer (0.1 M NaCl, 0.02 M Tris-HCl, pH 7.4) containing 0.05% Tween 20, the plates were incubated with wild-type PC, PC-Gla peptides, TFG, and TFMG ([…]) diluted in the buffer for 1 h. After the plates were rinsed again, they were incubated with a goat anti-protein C polyclonal antibody (1:1000) for 1 h. Then, the plates were washed and incubated with rabbit anti-goat IgG (KPL, MD, 1:1000) for 1 h. After washing, the plates were incubated with 2,2′-azino-di(3-ethylbenzthiazoline-6-sulfonate) (ABTS; KPL, Gaithersburg, Md.). Colorimetric analysis was performed by measuring absorbance values at 405 nm.
(§2) First, a solid-phase ELISA was used to measure the binding affinity of TFG or TFMG toward the PC-Gla receptor, EPCR. In this assay, the efficiency of their binding to soluble EPCR (sEPCR) was compared. […] TFG and TFMG, respectively.

wild type Protein C (PC) = target: T3, wild type Protein C (PC) (UniProt P04070 43-461); assay: as above
T3 construct: also called wild-type PC
Procedure: as §1, §2

B1
cleavage of the linker and release of PC-Gla (HPLC, MALDI-ToF) [1]: TFMG was cleaved by MMP-2 to release PC-Gla in agreement with the calculated mass (5,518.6 Da by MALDI-ToF)

B2
binding result (EPCR in mouse vena cava): binds

B3
Kd [2]: 31.5 nM

B4
Kd [2]: 30.7 nM

B5
Kd (wild type Protein C (PC)): ~31.3 nM
